Measured values published in US20160304570A1.
Where two headings read alike, the source gives them in different places.

What was measured:
Assay in all cases: cell-based or functional assay
[1] = biological target: human Nav1.5 voltage-gated sodium channel (human) (UniProt Q14524)
[2] = biological target: human voltage-gated sodium channel Nav1.3 (human) (UniProt Q9NY46)
[3] = biological target: human voltage-gated sodium channel Nav1.5 (human) (UniProt Q14524)
[4] = biological target: human voltage-gated sodium channel Nav1.7 (human) (UniProt Q15858)
[5] = biological target: human voltage-gated sodium channel Nav1.3 (human) (UniProt Q9NY46); remark: listed apart in the source
[6] = biological target: human voltage-gated sodium channel Nav1.3 (human) (UniProt Q9NY46); remark: listed apart in the source
[7] = biological target: human voltage-gated sodium channel Nav1.5 (human) (UniProt Q14524); remark: listed apart in the source
[8] = biological target: human voltage-gated sodium channel Nav1.7 (human) (UniProt Q15858); remark: listed apart in the source
[9] = biological target: human voltage-gated sodium channel Nav1.3 (human) (UniProt Q9NY46); remark: listed apart in the source
[10] = biological target: human voltage-gated sodium channel Nav1.5 (human) (UniProt Q14524); remark: listed apart in the source
[11] = biological target: human voltage-gated sodium channel Nav1.7 (human) (UniProt Q15858); remark: listed apart in the source
[12] = biological target: human voltage-gated sodium channel Nav1.3 (human) (UniProt Q9NY46); remark: listed apart in the source
[13] = biological target: human voltage-gated sodium channel Nav1.5 (human) (UniProt Q14524); remark: listed apart in the source
[14] = biological target: human voltage-gated sodium channel Nav1.7 (human) (UniProt Q15858); remark: listed apart in the source
[15] = biological target: human voltage-gated sodium channel Nav1.3 (human) (UniProt Q9NY46); remark: listed apart in the source
[16] = biological target: human voltage-gated sodium channel Nav1.5 (human) (UniProt Q14524); remark: listed apart in the source
[17] = biological target: human voltage-gated sodium channel Nav1.7 (human) (UniProt Q15858); remark: listed apart in the source
[18] = biological target: human Nav1.3 voltage-gated sodium channel (human) (UniProt Q9NY46)
[19] = biological target: human Nav1.5 voltage-gated sodium channel (human) (UniProt Q14524); remark: listed apart in the source
[20] = biological target: human Nav1.7 voltage-gated sodium channel (human) (UniProt Q15858)
[21] = biological target: human ERG (hERG) potassium channel (human) (UniProt Q12809)
human Nav1.3 (human) = human Nav1.3 (human) (UniProt Q9NY46)
[22] = biological target: human Nav1.3 voltage-gated sodium channel (human) (UniProt Q9NY46); remark: listed apart in the source
human Nav1.5 (human) = human Nav1.5 (human) (UniProt Q14524)
human Nav1.7 (human) = human Nav1.7 (human) (UniProt Q15858)
[23] = biological target: human Nav1.7 voltage-gated sodium channel (human) (UniProt Q15858); remark: listed apart in the source
[24] = biological target: human voltage-gated sodium channel Nav1.3 (human) (UniProt Q9NY46); remark: listed apart in the source
[25] = biological target: human voltage-gated sodium channel Nav1.5 (human) (UniProt Q14524); remark: listed apart in the source
[26] = biological target: human voltage-gated sodium channel Nav1.7 (human) (UniProt Q15858); remark: listed apart in the source
[27] = biological target: human Nav1.4 voltage-gated sodium channel (human) (UniProt P35499)
[28] = biological target: human voltage-gated sodium channel Nav1.4 (human) (UniProt P35499)
Sequence of human voltage-gated sodium channel Nav1.4 (human) (P35499 whole entry): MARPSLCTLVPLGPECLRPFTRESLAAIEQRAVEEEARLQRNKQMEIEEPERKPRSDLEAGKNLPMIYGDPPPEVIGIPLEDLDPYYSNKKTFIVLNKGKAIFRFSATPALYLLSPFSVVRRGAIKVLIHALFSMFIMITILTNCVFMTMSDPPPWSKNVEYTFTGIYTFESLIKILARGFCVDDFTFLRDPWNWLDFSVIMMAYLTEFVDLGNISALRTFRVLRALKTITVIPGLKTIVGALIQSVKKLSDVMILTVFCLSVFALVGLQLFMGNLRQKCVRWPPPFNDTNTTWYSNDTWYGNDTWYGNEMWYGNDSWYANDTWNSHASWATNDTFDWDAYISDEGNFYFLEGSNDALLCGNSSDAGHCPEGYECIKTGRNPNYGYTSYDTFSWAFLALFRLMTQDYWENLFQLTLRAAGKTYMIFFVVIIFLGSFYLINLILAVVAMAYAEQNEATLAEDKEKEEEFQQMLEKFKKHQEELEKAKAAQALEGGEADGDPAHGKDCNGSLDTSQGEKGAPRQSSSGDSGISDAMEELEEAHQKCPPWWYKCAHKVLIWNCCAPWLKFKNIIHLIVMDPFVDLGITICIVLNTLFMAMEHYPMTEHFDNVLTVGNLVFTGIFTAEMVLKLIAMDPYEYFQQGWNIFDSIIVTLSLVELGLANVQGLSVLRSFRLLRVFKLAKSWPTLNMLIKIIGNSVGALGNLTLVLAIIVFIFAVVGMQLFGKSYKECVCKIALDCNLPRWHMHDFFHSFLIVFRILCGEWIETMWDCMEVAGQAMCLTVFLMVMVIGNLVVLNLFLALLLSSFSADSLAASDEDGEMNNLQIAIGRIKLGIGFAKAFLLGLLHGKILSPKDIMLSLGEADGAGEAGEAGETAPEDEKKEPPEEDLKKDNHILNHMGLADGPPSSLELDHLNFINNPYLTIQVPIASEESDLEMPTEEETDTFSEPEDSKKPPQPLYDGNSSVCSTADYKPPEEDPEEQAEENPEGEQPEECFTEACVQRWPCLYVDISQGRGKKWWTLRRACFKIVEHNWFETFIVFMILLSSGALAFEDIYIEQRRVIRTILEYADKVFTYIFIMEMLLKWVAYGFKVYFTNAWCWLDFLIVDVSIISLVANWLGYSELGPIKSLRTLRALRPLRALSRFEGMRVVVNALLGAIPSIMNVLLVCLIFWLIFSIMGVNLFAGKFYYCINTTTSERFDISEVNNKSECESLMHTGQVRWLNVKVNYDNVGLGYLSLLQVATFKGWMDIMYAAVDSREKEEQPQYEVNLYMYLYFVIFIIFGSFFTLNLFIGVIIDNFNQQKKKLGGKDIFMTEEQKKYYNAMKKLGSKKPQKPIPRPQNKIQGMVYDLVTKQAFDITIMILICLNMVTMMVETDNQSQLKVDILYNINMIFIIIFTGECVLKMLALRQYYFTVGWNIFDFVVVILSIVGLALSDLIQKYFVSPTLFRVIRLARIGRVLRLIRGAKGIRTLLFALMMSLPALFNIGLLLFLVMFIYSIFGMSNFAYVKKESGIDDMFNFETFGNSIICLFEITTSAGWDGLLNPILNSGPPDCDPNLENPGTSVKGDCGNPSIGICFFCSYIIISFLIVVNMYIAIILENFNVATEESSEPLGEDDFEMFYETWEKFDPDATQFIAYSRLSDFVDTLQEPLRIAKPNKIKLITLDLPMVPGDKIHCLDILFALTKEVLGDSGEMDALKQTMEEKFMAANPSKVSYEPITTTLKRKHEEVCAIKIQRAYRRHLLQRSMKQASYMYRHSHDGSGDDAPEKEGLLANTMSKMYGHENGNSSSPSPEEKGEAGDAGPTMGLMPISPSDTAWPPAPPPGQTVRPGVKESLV

Sequence of human Nav1.4 voltage-gated sodium channel (human) (P35499 whole entry): as above
Sequence of human voltage-gated sodium channel Nav1.5 (human) (Q14524 whole entry): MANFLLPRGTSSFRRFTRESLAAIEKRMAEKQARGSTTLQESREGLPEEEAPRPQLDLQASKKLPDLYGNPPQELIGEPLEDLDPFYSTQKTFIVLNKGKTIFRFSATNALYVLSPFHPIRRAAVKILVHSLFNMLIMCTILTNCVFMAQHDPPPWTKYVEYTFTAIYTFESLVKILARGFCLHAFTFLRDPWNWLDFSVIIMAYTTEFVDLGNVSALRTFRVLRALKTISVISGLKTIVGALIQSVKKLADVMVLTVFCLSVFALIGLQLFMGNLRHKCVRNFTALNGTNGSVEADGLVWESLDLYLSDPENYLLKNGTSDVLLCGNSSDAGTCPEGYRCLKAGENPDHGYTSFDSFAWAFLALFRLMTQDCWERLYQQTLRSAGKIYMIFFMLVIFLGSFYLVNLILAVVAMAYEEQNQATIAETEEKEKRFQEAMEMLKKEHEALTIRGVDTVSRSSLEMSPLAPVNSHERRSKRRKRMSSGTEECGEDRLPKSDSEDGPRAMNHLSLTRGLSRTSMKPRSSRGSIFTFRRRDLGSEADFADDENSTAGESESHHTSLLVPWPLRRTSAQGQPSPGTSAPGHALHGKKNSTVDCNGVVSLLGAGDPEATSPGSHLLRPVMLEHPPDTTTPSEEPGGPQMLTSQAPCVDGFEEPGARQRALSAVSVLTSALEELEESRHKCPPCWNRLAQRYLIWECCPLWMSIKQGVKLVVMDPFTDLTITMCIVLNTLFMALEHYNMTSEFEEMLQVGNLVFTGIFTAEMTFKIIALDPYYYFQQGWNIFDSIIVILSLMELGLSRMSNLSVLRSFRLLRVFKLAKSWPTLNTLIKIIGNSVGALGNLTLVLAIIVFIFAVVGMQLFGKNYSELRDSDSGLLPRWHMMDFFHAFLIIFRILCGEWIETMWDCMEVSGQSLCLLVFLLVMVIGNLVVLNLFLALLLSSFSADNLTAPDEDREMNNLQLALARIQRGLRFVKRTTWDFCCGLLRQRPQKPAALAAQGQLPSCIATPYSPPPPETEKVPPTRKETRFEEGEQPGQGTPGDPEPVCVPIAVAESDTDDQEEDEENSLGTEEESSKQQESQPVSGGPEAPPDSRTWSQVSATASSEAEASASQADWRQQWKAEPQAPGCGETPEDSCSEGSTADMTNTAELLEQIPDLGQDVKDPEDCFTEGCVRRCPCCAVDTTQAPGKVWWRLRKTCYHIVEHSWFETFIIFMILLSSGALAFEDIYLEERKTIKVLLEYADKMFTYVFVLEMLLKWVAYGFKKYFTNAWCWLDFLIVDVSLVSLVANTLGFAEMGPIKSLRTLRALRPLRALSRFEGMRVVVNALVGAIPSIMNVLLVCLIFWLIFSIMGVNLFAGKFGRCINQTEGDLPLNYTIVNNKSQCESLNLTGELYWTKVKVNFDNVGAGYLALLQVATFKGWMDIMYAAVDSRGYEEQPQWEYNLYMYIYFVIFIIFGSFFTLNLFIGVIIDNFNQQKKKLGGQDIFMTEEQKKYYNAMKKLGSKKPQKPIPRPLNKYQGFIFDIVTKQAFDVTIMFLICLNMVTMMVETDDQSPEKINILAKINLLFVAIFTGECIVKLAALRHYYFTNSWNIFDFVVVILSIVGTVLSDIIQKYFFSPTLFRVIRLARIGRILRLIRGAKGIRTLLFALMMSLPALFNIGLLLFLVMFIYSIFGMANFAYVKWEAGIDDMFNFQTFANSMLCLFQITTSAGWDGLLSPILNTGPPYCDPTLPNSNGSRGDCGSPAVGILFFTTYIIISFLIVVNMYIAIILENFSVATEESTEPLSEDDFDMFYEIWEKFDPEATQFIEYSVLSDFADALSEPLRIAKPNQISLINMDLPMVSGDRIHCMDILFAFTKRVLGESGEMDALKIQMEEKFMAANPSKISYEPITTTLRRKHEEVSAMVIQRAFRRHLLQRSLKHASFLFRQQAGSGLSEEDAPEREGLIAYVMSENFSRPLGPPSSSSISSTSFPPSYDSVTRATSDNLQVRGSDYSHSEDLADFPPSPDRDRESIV
Sequence of human ERG (hERG) potassium channel (human) (Q12809 whole entry): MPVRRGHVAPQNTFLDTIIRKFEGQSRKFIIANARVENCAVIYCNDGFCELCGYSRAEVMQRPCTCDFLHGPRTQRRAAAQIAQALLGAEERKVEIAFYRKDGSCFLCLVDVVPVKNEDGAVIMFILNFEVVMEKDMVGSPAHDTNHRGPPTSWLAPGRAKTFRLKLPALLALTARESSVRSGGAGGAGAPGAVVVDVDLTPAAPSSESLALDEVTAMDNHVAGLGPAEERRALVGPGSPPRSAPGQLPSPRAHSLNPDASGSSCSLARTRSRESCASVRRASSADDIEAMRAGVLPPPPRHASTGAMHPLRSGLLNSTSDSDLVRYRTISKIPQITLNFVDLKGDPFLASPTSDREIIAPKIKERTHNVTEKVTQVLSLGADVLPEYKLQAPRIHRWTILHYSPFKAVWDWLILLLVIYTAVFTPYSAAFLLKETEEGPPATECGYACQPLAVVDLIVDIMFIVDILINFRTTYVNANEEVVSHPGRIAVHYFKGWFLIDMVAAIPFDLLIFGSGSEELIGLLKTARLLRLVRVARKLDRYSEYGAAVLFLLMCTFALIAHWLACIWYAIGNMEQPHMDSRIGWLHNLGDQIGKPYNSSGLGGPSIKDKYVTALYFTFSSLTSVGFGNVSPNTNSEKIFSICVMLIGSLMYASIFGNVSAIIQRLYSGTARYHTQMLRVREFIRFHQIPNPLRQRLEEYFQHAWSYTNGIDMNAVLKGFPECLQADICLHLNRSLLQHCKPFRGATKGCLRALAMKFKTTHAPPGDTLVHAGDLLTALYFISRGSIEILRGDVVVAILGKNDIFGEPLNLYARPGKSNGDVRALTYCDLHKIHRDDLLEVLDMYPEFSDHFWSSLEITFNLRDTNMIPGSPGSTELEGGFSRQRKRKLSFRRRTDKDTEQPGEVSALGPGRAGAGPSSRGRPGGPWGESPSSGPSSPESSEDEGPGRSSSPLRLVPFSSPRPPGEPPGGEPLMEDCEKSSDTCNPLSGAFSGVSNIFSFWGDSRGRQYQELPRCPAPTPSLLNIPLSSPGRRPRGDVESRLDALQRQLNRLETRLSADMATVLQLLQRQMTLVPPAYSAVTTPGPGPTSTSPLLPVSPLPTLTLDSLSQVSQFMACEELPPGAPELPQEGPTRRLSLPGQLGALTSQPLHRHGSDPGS

Substance: Ac-GpTx-1(1-34) (peptide)
- Nav1.5 Use IC50 (µM), PatchXpress electrophysiology [1]: > 10 µM

Substance: GpTx-1(1-34) (peptide)
- IWQ Use Nav1.3 [2]: 0.08 µM
- IWQ Use Nav1.5 [3]: 13.1 µM
- IWQ Use Nav1.7 [4]: 0.08 µM
- IWQ Use Nav1.3 [5]: 0.08 µM
- IWQ Use Nav1.3 [6]: 0.08 µM
- IWQ Use Nav1.5 [7]: 13.1 µM
- IWQ Use Nav1.7 [8]: 0.08 µM
- IWQ Use Nav1.3 (µM) (IC50, IonWorks Quattro population patch clamp) [9]: 0.08 µM
- IWQ Use Nav1.5 (µM) (IC50, IonWorks Quattro population patch clamp) [10]: 13.1 µM
- IWQ Use Nav1.7 (µM) (IC50, IonWorks Quattro population patch clamp) [11]: 0.08 µM
- IWQ Use Nav1.3 (µM); IC50 of peak inward current, IonWorks Quattro [12]: 0.08 µM
- IWQ Use Nav1.5 (µM); IC50 of peak inward current, IonWorks Quattro [13]: 13.1 µM
- IWQ Use Nav1.7 (µM); IC50 of peak inward current, IonWorks Quattro [14]: 0.08 µM
- IWQ Use Nav1.3 [15]: 0.08 µM
- IWQ Use Nav1.5 [16]: 13.1 µM
- IWQ Use Nav1.7 [17]: 0.08 µM
- IWQ Use Nav1.3 [18]: 0.08 µM
- IWQ Use Nav1.5 [19]: 13.1 µM
- IWQ Use Nav1.7 [20]: 0.08 µM
- IC50, hERG current, PatchXpress counterscreen [21]: > 10000 nM
- IWQ Use Nav1.3 (µM) [IC50, IonWorks Quattro electrophysiology] (human Nav1.3 (human)): 0.08 µM
- IC50, peak inward hNav1.3 current, whole cell patch clamp, cells held at -140 mV [22]: 16.8 nM
- IWQ Use Nav1.3 [22]: 0.08 µM
- IWQ Use Nav1.3 (µM): IC50 of peak inward current block, IonWorks Quattro [22]: 0.08 µM
- IWQ Use Nav1.3 (µM); IC50 of peak inward current, IonWorks Quattro [22]: 0.08 µM
- IWQ Use Nav1.5 (µM) [IC50, IonWorks Quattro electrophysiology] (human Nav1.5 (human)): 13.1 µM
- IC50, hNav1.5 current, PatchXpress counterscreen [1]: 9800 nM
- IC50, peak inward hNav1.5 current, whole cell patch clamp, cells held at -140 mV [1]: 8900 nM
- IWQ Use Nav1.5 [1]: 13.1 µM
- IWQ Use Nav1.5 (µM): IC50 of peak inward current block, IonWorks Quattro [1]: 13.1 µM
- IWQ Use Nav1.5 (µM); IC50 of peak inward current, IonWorks Quattro [1]: 13.1 µM
- IWQ Use Nav1.7 (µM) [IC50, IonWorks Quattro electrophysiology] (human Nav1.7 (human)): 0.08 µM
- IC50, peak inward hNav1.7 current, whole cell patch clamp, cells held at -140 mV [23]: 7.4 nM
- IWQ Use Nav1.7 [23]: 0.08 µM
- IWQ Use Nav1.7 (µM): IC50 of peak inward current block, IonWorks Quattro [23]: 0.08 µM
- IWQ Use Nav1.7 (µM); IC50 of peak inward current, IonWorks Quattro [23]: 0.08 µM
- inhibition of NaV1.7 activity, IonWorks Quattro, venom sub-fraction 11 [23]: > 90%
- IWQ Use Nav1.3 [24]: 0.08 µM
- IWQ Use Nav1.3 (µM) (IC50, IonWorks Quattro population patch clamp) [24]: 0.08 µM
- IWQ Use Nav1.3 (µM): IC50 of peak inward current, IonWorks Quattro [24]: 0.08 µM
- IWQ Use Nav1.3 (µM); IC50 of peak inward current, IonWorks Quattro [24]: 0.08 µM
- Nav1.3 Use IC50 (PatchXpress whole cell patch clamp) [24]: 10 nM
- IWQ Use Nav1.5 [25]: 13.1 µM
- IWQ Use Nav1.5 (µM) (IC50, IonWorks Quattro population patch clamp) [25]: 13.1 µM
- IWQ Use Nav1.5 (µM): IC50 of peak inward current, IonWorks Quattro [25]: 13.1 µM
- IWQ Use Nav1.5 (µM); IC50 of peak inward current, IonWorks Quattro [25]: 13.1 µM
- Nav1.5 Use IC50 (PatchXpress whole cell patch clamp) [25]: > 10000 nM
- IWQ Use Nav1.7 [26]: 0.08 µM
- IWQ Use Nav1.7 (µM) (IC50, IonWorks Quattro population patch clamp) [26]: 0.08 µM
- IWQ Use Nav1.7 (µM): IC50 of peak inward current, IonWorks Quattro [26]: 0.08 µM
- IWQ Use Nav1.7 (µM); IC50 of peak inward current, IonWorks Quattro [26]: 0.08 µM
- Nav1.7 Use IC50 (PatchXpress whole cell patch clamp) [26]: 5 nM
- Nav1.7 Use IC50 (µM); PatchXpress whole cell patch clamp electrophysiology [26]: 0.005 µM

Substance: GpTx-1(1-34)-FreeAcid (peptide)
- IWQ Use Nav1.3 (µM) (IC50, IonWorks Quattro population patch clamp) [24]: 0.54 µM
- IWQ Use Nav1.5 (µM) (IC50, IonWorks Quattro population patch clamp) [25]: 9.44 µM

Substance: GpTx-2 (peptide)
- IWQ Use Nav1.3 [18]: 1.15 µM
- IWQ Use Nav1.5 [19]: 7.21 µM
- IWQ Use Nav1.7 [20]: 4.34 µM

Substance: GpTx-3 (peptide)
- IWQ Use Nav1.3 [18]: 9.37 µM
- IWQ Use Nav1.4 [27]: 20 µM
- IWQ Use Nav1.5 [19]: 7.8 µM
- IWQ Use Nav1.7 [20]: 8.93 µM

Substance: GpTx-4 (peptide)
- IWQ Use Nav1.3 [18]: 4.92 µM
- IWQ Use Nav1.4 [27]: 11 µM
- IWQ Use Nav1.5 [19]: 10.4 µM
- IWQ Use Nav1.7 [20]: 9.25 µM

Substance: GpTx-6(1-34) (peptide)
- IWQ Use Nav1.3 [18]: 0.54 µM
- IWQ Use Nav1.4 [27]: 4.1 µM
- IWQ Use Nav1.5 [19]: 7.3 µM
- IWQ Use Nav1.7 [20]: 1.3 µM

Substance: GpTx-6(1-35) (peptide)
- IWQ Use Nav1.3 [18]: 1.7 µM
- IWQ Use Nav1.4 [27]: 17.4 µM
- IWQ Use Nav1.5 [19]: 14.6 µM
- IWQ Use Nav1.7 [20]: 9.6 µM

Substance: Huwentoxin-I (peptide)
- Nav1.3 Use IC50 (PatchXpress whole cell patch clamp) [24]: 905 nM
- Nav1.4 Use IC50 (PatchXpress whole cell patch clamp) [28]: 24900 nM
- Nav1.5 Use IC50 (PatchXpress whole cell patch clamp) [25]: > 30000 nM

Substance: Huwentoxin-IV (peptide)
- Nav1.3 Use IC50 (PatchXpress whole cell patch clamp) [24]: 22 nM
- Nav1.4 Use IC50 (PatchXpress whole cell patch clamp) [28]: 4500 nM
- Nav1.7 Use IC50 (PatchXpress whole cell patch clamp) [26]: 32 nM

Substance: ProTxII (peptide)
- Nav1.3 Use IC50 (PatchXpress whole cell patch clamp) [24]: 15 nM
- Nav1.4 Use IC50 (PatchXpress whole cell patch clamp) [28]: 32 nM
- Nav1.5 Use IC50 (PatchXpress whole cell patch clamp) [25]: 104 nM
- Nav1.7 Use IC50 (PatchXpress whole cell patch clamp) [26]: 2 nM

Substance: [Ala5;Phe6;Leu26;Arg28]GpTx-1(1-34) (peptide)
- IWQ Use Nav1.3 (µM); IC50 of peak inward current, IonWorks Quattro [18]: 0.04 µM
- IWQ Use Nav1.4 (µM); IC50 of peak inward current, IonWorks Quattro [27]: 5 µM
- IWQ Use Nav1.5 (µM); IC50 of peak inward current, IonWorks Quattro [19]: 5 µM
- IWQ Use Nav1.7 (µM); IC50 of peak inward current, IonWorks Quattro [20]: 0.05 µM
- Nav1.3 Use IC50 (PatchXpress electrophysiology) [24]: 0.008 µM
- Nav1.5 Use IC50 (PatchXpress electrophysiology) [25]: > 10 µM
- Nav1.7 Use IC50 (PatchXpress electrophysiology) [26]: 0.002 µM

Substance: [D-Phe5]GpTx-1(1-34) (peptide)
- IWQ Use Nav1.7 (µM): IC50 of peak inward current, IonWorks Quattro [23]: 1.23 µM

Substance: [D-Phe34]GpTx-1(1-34) (peptide)
- IWQ Use Nav1.3 [15]: 0.52 µM
- IWQ Use Nav1.5 [16]: 20.7 µM
- IWQ Use Nav1.7 [17]: 0.98 µM
